Patent publication US20140271457A1 (AbbVie / Abbott, published 2014)

B1: DVD2814 (bispecific antibody, IgG1)
VH: EVQLVQSGAEVKKPGASVKVSCKASGYTFANYGIIWVRQAPGQGLEWMGWINTYTGKPTYAQKFQGRVTMTTDTSTSTAYMELSSLRSEDTAVYYCARKLFTTMDVTDNAMDYWGQGTTVTVSSASTKGPEVQLVESGGGLVQPGGSLRLSCAASGFSLTNNNVNWVRQAPGKGLEWVGGVWAGGATDYNSALKSRFTISRDNSKNTAYLQMNSLRAEDTAVYYCARDGGYSSSTLYAMDAWGQGTLVTVSS
VL: DIQMTQSPSSLSASVGDRVTITCRASQDISQYLNWYQQKPGKAPKLLIYYTSRLQSGVPSRFSGSGSGTDFTLTISSLQPEDFATYFCQQGNTWPPTFGQGTKLEIKRTVAAPDIQMTQSPSSLSASVGDRVTITCRASEDIYNALAWYQQKPGKAPKLLIYNTDTLHTGVPSRFSGSGSGTDYTLTISSLQPEDFATYFCQHYFHYPRTFGQGTKVEIKR
B2: DVD2817 (bispecific antibody, IgG1)
VH: EVQLVQSGAEVKKPGASVKVSCKASGYTFANYGIIWVRQAPGQGLEWMGWINTYTGKPTYAQKFQGRVTMTTDTSTSTAYMELSSLRSEDTAVYYCARKLFTTMDVTDNAMDYWGQGTTVTVSSASTKGPSVFPLAPEVQLVESGGGLVQPGGSLRLSCAASGFSLTNNNVNWVRQAPGKGLEWVGGVWAGGATDYNSALKSRFTISRDNSKNTAYLQMNSLRAEDTAVYYCARDGGYSSSTLYAMDAWGQGTLVTVSS
VL: B1 VL
B3: DVD2816 (bispecific antibody, IgG1)
VH: B1 VH
VL: DIQMTQSPSSLSASVGDRVTITCRASQDISQYLNWYQQKPGKAPKLLIYYTSRLQSGVPSRFSGSGSGTDFTLTISSLQPEDFATYFCQQGNTWPPTFGQGTKLEIKRTVAAPSVFIFPPDIQMTQSPSSLSASVGDRVTITCRASEDIYNALAWYQQKPGKAPKLLIYNTDTLHTGVPSRFSGSGSGTDYTLTISSLQPEDFATYFCQHYFHYPRTFGQGTKVEIKR
B4: DVD2818 (bispecific antibody, IgG1)
VH: EVQLVESGGGLVQPGGSLRLSCAASGFSLTNNNVNWVRQAPGKGLEWVGGVWAGGATDYNSALKSRFTISRDNSKNTAYLQMNSLRAEDTAVYYCARDGGYSSSTLYAMDAWGQGTLVTVSSGGGGSGGGGSEVQLVQSGAEVKKPGASVKVSCKASGYTFANYGIIWVRQAPGQGLEWMGWINTYTGKPTYAQKFQGRVTMTTDTSTSTAYMELSSLRSEDTAVYYCARKLFTTMDVTDNAMDYWGQGTTVTVSS
VL: DIQMTQSPSSLSASVGDRVTITCRASEDIYNALAWYQQKPGKAPKLLIYNTDTLHTGVPSRFSGSGSGTDYTLTISSLQPEDFATYFCQHYFHYPRTFGQGTKVEIKRGGSGGGGSGDIQMTQSPSSLSASVGDRVTITCRASQDISQYLNWYQQKPGKAPKLLIYYTSRLQSGVPSRFSGSGSGTDFTLTISSLQPEDFATYFCQQGNTWPPTFGQGTKLEIKR
B5: DVD2813 (bispecific antibody, IgG1)
VH: EVQLVQSGAEVKKPGASVKVSCKASGYTFANYGIIWVRQAPGQGLEWMGWINTYTGKPTYAQKFQGRVTMTTDTSTSTAYMELSSLRSEDTAVYYCARKLFTTMDVTDNAMDYWGQGTTVTVSSGGGGSGGGGSEVQLVESGGGLVQPGGSLRLSCAASGFSLTNNNVNWVRQAPGKGLEWVGGVWAGGATDYNSALKSRFTISRDNSKNTAYLQMNSLRAEDTAVYYCARDGGYSSSTLYAMDAWGQGTLVTVSS
VL: DIQMTQSPSSLSASVGDRVTITCRASQDISQYLNWYQQKPGKAPKLLIYYTSRLQSGVPSRFSGSGSGTDFTLTISSLQPEDFATYFCQQGNTWPPTFGQGTKLEIKRGGSGGGGSGDIQMTQSPSSLSASVGDRVTITCRASEDIYNALAWYQQKPGKAPKLLIYNTDTLHTGVPSRFSGSGSGTDYTLTISSLQPEDFATYFCQHYFHYPRTFGQGTKVEIKR
B6: DVD2819 (bispecific antibody, IgG1)
VH: EVQLVESGGGLVQPGGSLRLSCAASGFSLTNNNVNWVRQAPGKGLEWVGGVWAGGATDYNSALKSRFTISRDNSKNTAYLQMNSLRAEDTAVYYCARDGGYSSSTLYAMDAWGQGTLVTVSSASTKGPEVQLVQSGAEVKKPGASVKVSCKASGYTFANYGIIWVRQAPGQGLEWMGWINTYTGKPTYAQKFQGRVTMTTDTSTSTAYMELSSLRSEDTAVYYCARKLFTTMDVTDNAMDYWGQGTTVTVSS
VL: DIQMTQSPSSLSASVGDRVTITCRASEDIYNALAWYQQKPGKAPKLLIYNTDTLHTGVPSRFSGSGSGTDYTLTISSLQPEDFATYFCQHYFHYPRTFGQGTKVEIKRTVAAPDIQMTQSPSSLSASVGDRVTITCRASQDISQYLNWYQQKPGKAPKLLIYYTSRLQSGVPSRFSGSGSGTDFTLTISSLQPEDFATYFCQQGNTWPPTFGQGTKLEIKR
B7: DVD2764 (bispecific antibody, IgG1)
VH: EVQLVESGGGLVQPGGSLRLSCAASGFTFSNYGVEWVRQAPGKGLEWVSGIWADGSTHYADTVKSRFTISRDNSKNTLYLQMNSLRAEDTAVYYCAREWQHGPVAYWGQGTLVTVSSASTKGPEVQLVESGGGLVQPGGSLRLSCAASGFSLTNNNVNWVRQAPGKGLEWVGGVWAGGATDYNSALKSRFTISRDNSKNTAYLQMNSLRAEDTAVYYCARDGGYSSSTLYAMDAWGQGTLVTVSS
VL: DIQMTQSPSSLSASVGDRVTITCKASQLVSSAVAWYQQKPGKAPKLLIYWASTLHTGVPSRFSGSGSGTDFTLTISSLQPEDFATYYCQQHYRTPFTFGQGTKLEIKRTVAAPDIQMTQSPSSLSASVGDRVTITCRASEDIYNALAWYQQKPGKAPKLLIYNTDTLHTGVPSRFSGSGSGTDYTLTISSLQPEDFATYFCQHYFHYPRTFGQGTKVEIKR
B8: DVD2767 (bispecific antibody, IgG1)
VH: EVQLVESGGGLVQPGGSLRLSCAASGFTFSNYGVEWVRQAPGKGLEWVSGIWADGSTHYADTVKSRFTISRDNSKNTLYLQMNSLRAEDTAVYYCAREWQHGPVAYWGQGTLVTVSSASTKGPSVFPLAPEVQLVESGGGLVQPGGSLRLSCAASGFSLTNNNVNWVRQAPGKGLEWVGGVWAGGATDYNSALKSRFTISRDNSKNTAYLQMNSLRAEDTAVYYCARDGGYSSSTLYAMDAWGQGTLVTVSS
VL: B7 VL
B9: DVD2768 (bispecific antibody, IgG1)
VH: EVQLVESGGGLVQPGGSLRLSCAASGFSLTNNNVNWVRQAPGKGLEWVGGVWAGGATDYNSALKSRFTISRDNSKNTAYLQMNSLRAEDTAVYYCARDGGYSSSTLYAMDAWGQGTLVTVSSGGGGSGGGGSEVQLVESGGGLVQPGGSLRLSCAASGFTFSNYGVEWVRQAPGKGLEWVSGIWADGSTHYADTVKSRFTISRDNSKNTLYLQMNSLRAEDTAVYYCAREWQHGPVAYWGQGTLVTVSS
VL: DIQMTQSPSSLSASVGDRVTITCRASEDIYNALAWYQQKPGKAPKLLIYNTDTLHTGVPSRFSGSGSGTDYTLTISSLQPEDFATYFCQHYFHYPRTFGQGTKVEIKRGGSGGGGSGDIQMTQSPSSLSASVGDRVTITCKASQLVSSAVAWYQQKPGKAPKLLIYWASTLHTGVPSRFSGSGSGTDFTLTISSLQPEDFATYYCQQHYRTPFTFGQGTKLEIKR
B10: DVD2769 (bispecific antibody, IgG1)
VH: EVQLVESGGGLVQPGGSLRLSCAASGFSLTNNNVNWVRQAPGKGLEWVGGVWAGGATDYNSALKSRFTISRDNSKNTAYLQMNSLRAEDTAVYYCARDGGYSSSTLYAMDAWGQGTLVTVSSASTKGPEVQLVESGGGLVQPGGSLRLSCAASGFTFSNYGVEWVRQAPGKGLEWVSGIWADGSTHYADTVKSRFTISRDNSKNTLYLQMNSLRAEDTAVYYCAREWQHGPVAYWGQGTLVTVSS
VL: DIQMTQSPSSLSASVGDRVTITCRASEDIYNALAWYQQKPGKAPKLLIYNTDTLHTGVPSRFSGSGSGTDYTLTISSLQPEDFATYFCQHYFHYPRTFGQGTKVEIKRTVAAPDIQMTQSPSSLSASVGDRVTITCKASQLVSSAVAWYQQKPGKAPKLLIYWASTLHTGVPSRFSGSGSGTDFTLTISSLQPEDFATYYCQQHYRTPFTFGQGTKLEIKR
B11: DVD2772 (bispecific antibody, IgG1)
VH: EVQLVESGGGLVQPGGSLRLSCAASGFSLTNNNVNWVRQAPGKGLEWVGGVWAGGATDYNSALKSRFTISRDNSKNTAYLQMNSLRAEDTAVYYCARDGGYSSSTLYAMDAWGQGTLVTVSSASTKGPSVFPLAPEVQLVESGGGLVQPGGSLRLSCAASGFTFSNYGVEWVRQAPGKGLEWVSGIWADGSTHYADTVKSRFTISRDNSKNTLYLQMNSLRAEDTAVYYCAREWQHGPVAYWGQGTLVTVSS
VL: B10 VL
B12: DVD2771 (bispecific antibody, IgG1)
VH: B10 VH
VL: DIQMTQSPSSLSASVGDRVTITCRASEDIYNALAWYQQKPGKAPKLLIYNTDTLHTGVPSRFSGSGSGTDYTLTISSLQPEDFATYFCQHYFHYPRTFGQGTKVEIKRTVAAPSVFIFPPDIQMTQSPSSLSASVGDRVTITCKASQLVSSAVAWYQQKPGKAPKLLIYWASTLHTGVPSRFSGSGSGTDFTLTISSLQPEDFATYYCQQHYRTPFTFGQGTKLEIKR

Biological target: Recombinant Human TNF-α/TNFSF1A (human, UniProt P01375 77-233)
Sequence (P01375 77-233 limits assumed): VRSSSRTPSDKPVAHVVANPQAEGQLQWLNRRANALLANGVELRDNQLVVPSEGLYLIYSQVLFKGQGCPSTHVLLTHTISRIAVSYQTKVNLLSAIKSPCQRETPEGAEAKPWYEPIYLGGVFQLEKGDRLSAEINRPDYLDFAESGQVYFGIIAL
Test: cell-based or functional assay

Binder	N-Terminal VD huTNFα Neutralization Assay IC50	C-Terminal VD huTNFα Neutralization Assay IC50
B1	0.012 nM	–
B2	0.013 nM	–
B3	0.009 nM	–
B4	–	0.072 nM
B5	0.016 nM	–
B6	–	0.279 nM
B7	0.012 nM	–
B8	0.01 nM	–
B9	–	0.189 nM
B10	–	0.222 nM
B11	–	0.128 nM
B12	–	0.06 nM

Biological target: Recombinant Human β-NGF (human, UniProt P01138 122-241)
Sequence (P01138 122-241 limits assumed): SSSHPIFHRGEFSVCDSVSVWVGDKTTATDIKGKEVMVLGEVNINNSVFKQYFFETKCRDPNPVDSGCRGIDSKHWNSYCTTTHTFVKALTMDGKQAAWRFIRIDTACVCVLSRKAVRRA
Test: cell-based or functional assay

Binder	C-Terminal VD NGF Neutralization Assay IC50	N-Terminal VD NGF Neutralization Assay IC50
B1	0.019 nM	–
B2	1.27 nM	–
B3	2.89 nM	–
B4	–	0.003 nM
B5	7.46 nM	–
B6	–	0.006 nM
B7	4.1 nM	–
B8	0.646 nM	–
B9	–	0.003 nM
B10	–	0.001 nM
B11	–	0.04 nM
B12	–	0.037 nM
